Measurements published in article PMC3924271.
Several values for one entry are separate records, joined by “and”; a condition that tells them apart may be missing. Equal entries are not always repeated.

Key:
[1] = target: Rabbit skeletal muscle actin, monomeric (G-actin) (rabbit) (UniProt P68135); assay: SPR
[2] = target: Rabbit skeletal muscle actin, monomeric (G-actin) (rabbit) (UniProt P68135); assay: cross-linking
[3] = target: Rabbit skeletal muscle actin, filamentous (F-actin) (rabbit) (UniProt P68135)

PfADF1.K72A (natural protein) was tested. Which Kd [1] did it give?
Its Kd is 33 µM.

And the kon [1]?
Its kon is 64.2 M⁻¹ s⁻¹.

How did the Kd [1] turn out when “Plasmodium falciparum actin depolymerizing factor 1 (PfADF1), wild type (natural protein)” was run?
The Kd was 3.5 µM.

And the kon [1]?
Its kon is 95.9 M⁻¹ s⁻¹.

What about the percent of actin and PfADF1 linked by EDC [2] of the same substance?
Its percent of actin and PfADF1 linked by EDC is 10% and 25%.

And the filament pitch by negative-stain TEM, similar concentration of PfADF1 [3]?
Its filament pitch by negative-stain TEM, similar concentration of PfADF1 is 39.4 nm.
